From doi:10.1101/2021.07.21.452842

Biological target: GST-BRCA1 (tandem BRCT) M1775R (UniProt P38398)
Assay: pull-down

fold change of binding against BRCA1 (tandem BRCT) WT: 3 to 5 fold
B1: His-GIV-CT (aa 1660-1870) (domain or fragment)
chain: SETLESRHHKIKTGSPGSEVVTLQQFLEESNKLTSVQIKSSSQENLLDEVMKSLSVSSDFLGKDKPVSCGLARSVSGKTPGDFYDRRTTKPEFLRPGPRKTEDTYFISSAGKPTPGTQGKIKLVKESSLSRQSKDSNPYATLPRASSVISTAEGTTRRTSIHDFLTKDSRLPISVDSPPAAADSNTTAASNVDKVQESRNSKSRSREQQSS
